The source of these data is US20160368965A1 (IMMATICS BIOTECHNOLOGIES, published 2016).

B1: VMASPGGLSAV (SEQ ID NO: 72) (peptide)
peptide: VMASPGGLSAV
B2: LLPGTEYVVSV (SEQ ID NO: 80) (peptide)
peptide: LLPGTEYVVSV
B3: VVYDDSTGLIRL (SEQ ID NO: 81) (peptide)
peptide: VVYDDSTGLIRL
B4: VMVDGKPVNL (SEQ ID NO: 73) (peptide)
peptide: VMVDGKPVNL
B5: FLTPSIFII (SEQ ID NO: 39) (peptide)
peptide: FLTPSIFII
B6: HLGVKVFSV (SEQ ID NO: 43) (peptide)
peptide: HLGVKVFSV
B7: RQYPWGVVQV (SEQ ID NO: 58) (peptide)
peptide: RQYPWGVVQV
B8: LLWDPSTGKQV (SEQ ID NO: 53) (peptide)
peptide: LLWDPSTGKQV
B9: GLGDFIFYSV (SEQ ID NO: 86) (peptide)
peptide: GLGDFIFYSV
B10: ILAQVGFSV (SEQ ID NO: 44) (peptide)
peptide: ILAQVGFSV
B11: LLDGFPRTV (SEQ ID NO: 49) (peptide)
peptide: LLDGFPRTV
B12: SLWEDYPHV (SEQ ID NO: 60) (peptide)
peptide: SLWEDYPHV
B13: SLSESFFMV (SEQ ID NO: 59) (peptide)
peptide: SLSESFFMV
B14: TLFSEPKFAQV (SEQ ID NO: 64) (peptide)
peptide: TLFSEPKFAQV
B15: VLGVIWGV (SEQ ID NO: 70) (peptide)
peptide: VLGVIWGV
B16: SMYDGLLQA (SEQ ID NO: 61) (peptide)
peptide: SMYDGLLQA
B17: TMVEHNYYV (SEQ ID NO: 46) (peptide)
peptide: TMVEHNYYV
B18: ALIAEGIAL (SEQ ID NO: 82) (peptide)
peptide: ALIAEGIAL
B19: ILSDMRSQYEV (SEQ ID NO: 42) (peptide)
peptide: ILSDMRSQYEV
B20: LTQPGPIASA (SEQ ID NO: 54) (peptide)
peptide: LTQPGPIASA
B21: VVYEGQLISI (SEQ ID NO: 79) (peptide)
peptide: VVYEGQLISI
B22: LLDENGVLKL (SEQ ID NO: 48) (peptide)
peptide: LLDENGVLKL
B23: YVDDGLISL (SEQ ID NO: 32) (peptide)
peptide: YVDDGLISL
B24: FLFPSQYVDV (SEQ ID NO: 35) (peptide)
peptide: FLFPSQYVDV
B25: VLLPEGGITAI (SEQ ID NO: 71) (peptide)
peptide: VLLPEGGITAI
B26: RLFPGSSFL (SEQ ID NO: 77) (peptide)
peptide: RLFPGSSFL
B27: LLGPAGARA (SEQ ID NO: 51) (peptide)
peptide: LLGPAGARA
B28: FLEDDDIAAV (SEQ ID NO: 34) (peptide)
peptide: FLEDDDIAAV
B29: NLIGVTAEL (SEQ ID NO: 56) (peptide)
peptide: NLIGVTAEL
B30: SVFPGARLL (SEQ ID NO: 62) (peptide)
peptide: SVFPGARLL
B31: VIWGTDVNV (SEQ ID NO: 67) (peptide)
peptide: VIWGTDVNV
B32: YIYKDTIQV (SEQ ID NO: 30) (peptide)
peptide: YIYKDTIQV
B33: ALLTGIISKA (SEQ ID NO: 5) (peptide)
peptide: ALLTGIISKA
B34: FILPIGATV (SEQ ID NO: 84) (peptide)
peptide: FILPIGATV
B35: IIDDTIFNL (SEQ ID NO: 88) (peptide)
peptide: IIDDTIFNL
B36: ILIGETIKI (SEQ ID NO: 3) (peptide)
peptide: ILIGETIKI
B37: FLNPDEVHAI (SEQ ID NO: 37) (peptide)
peptide: FLNPDEVHAI
B38: NLAPAPLNA (SEQ ID NO: 55) (peptide)
peptide: NLAPAPLNA
B39: YLDSMYIML (SEQ ID NO: 31) (peptide)
peptide: YLDSMYIML
B40: GLLAGNEKLTM (SEQ ID NO: 41) (peptide)
peptide: GLLAGNEKLTM
B41: ALVDIVRSL (SEQ ID NO: 7) (peptide)
peptide: ALVDIVRSL
B42: GLAPQIHDL (SEQ ID NO: 40) (peptide)
peptide: GLAPQIHDL
B43: VLFSGSLRL (SEQ ID NO: 69) (peptide)
peptide: VLFSGSLRL
B44: LLFGSDGYYV (SEQ ID NO: 50) (peptide)
peptide: LLFGSDGYYV
B45: RLSELGITQA (SEQ ID NO: 57) (peptide)
peptide: RLSELGITQA
B46: ILYSDDGQKWTV (SEQ ID NO: 45) (peptide)
peptide: ILYSDDGQKWTV
B47: FLGDLSHLL (SEQ ID NO: 36) (peptide)
peptide: FLGDLSHLL
B48: YIDKDLEYV (SEQ ID NO: 74) (peptide)
peptide: YIDKDLEYV
B49: VLFDVTGQV (SEQ ID NO: 68) (peptide)
peptide: VLFDVTGQV
B50: ALDPAAQAFLL (SEQ ID NO: 4) (peptide)
peptide: ALDPAAQAFLL
B51: LIYKDLVSV (SEQ ID NO: 47) (peptide)
peptide: LIYKDLVSV
B52: ALTGIPLPLI (SEQ ID NO: 6) (peptide)
peptide: ALTGIPLPLI
B53: SLQDTEEKSRS (SEQ ID NO: 78) (peptide)
peptide: SLQDTEEKSRS
B54: TLNEKLTAL (SEQ ID NO: 65) (peptide)
peptide: TLNEKLTAL
B55: ALSKEIYVI (SEQ ID NO: 83) (peptide)
peptide: ALSKEIYVI
B56: FLSDGTIISV (SEQ ID NO: 85) (peptide)
peptide: FLSDGTIISV
B57: ALYTGSALDFV (SEQ ID NO: 8) (peptide)
peptide: ALYTGSALDFV
B58: GLLPALVAL (SEQ ID NO: 87) (peptide)
peptide: GLLPALVAL
B59: LLSDPIPEV (SEQ ID NO: 52) (peptide)
peptide: LLSDPIPEV
B60: SVTGIIVGV (SEQ ID NO: 63) (peptide)
peptide: SVTGIIVGV
B61: FLTEAALGDA (SEQ ID NO: 38) (peptide)
peptide: FLTEAALGDA

For this experiment, the target named is T1, HLA-A*02:01 (human).
T1 construct: the tested peptide takes its place; also called peptide-receptive MHC molecules; MHC class I
Nature of the experiment: UV-ligand exchange, anti-β2m ELISA; grade of peptide exchange yield. The source says: Candidate peptides for T cell based therapies according to the present invention were further tested for their MHC binding capacity (affinity). The individual peptide-MHC complexes were produced by UV-ligand exchange, where a UV-sensitive peptide is cleaved upon UV-irradiation, and exchanged with the peptide of interest as analyzed. Only peptide candidates that can effectively bind and stabilize the peptide-receptive MHC molecules prevent dissociation of the MHC complexes. To determine the yield of the exchange reaction, an ELISA was performed based on the detection of the light chain (β2m) of stabilized MHC complexes. The assay was performed as generally described in Rodenko et al. (Rodenko et al., 2006).
96 well MAXISorp plates (NUNC) were coated over night with 2 ug/ml streptavidin in PBS at room temperature, washed 4× and blocked for 1h at 37° C. in 2% BSA containing blocking buffer. Refolded HLA-A*02:01/MLA-001 monomers served as standards, covering the range of 15-500 ng/ml. Peptide-MHC monomers of the UV-exchange reaction were diluted 100 fold in blocking buffer. Samples were incubated for 1 h at 37° C., washed four times, incubated with 2 ug/ml HRP conjugated anti-β2m for 1h at 37° C., washed again and detected with TMB solution that is stopped with […]. Absorption was measured at 450 nm. Candidate peptides that show a high exchange yield (preferably higher than 50%, most preferred higher than 75%) are generally preferred for a generation and production of antibodies or fragments thereof, and/or T cell receptors or fragments thereof, as they show sufficient avidity to the MHC molecules and prevent dissociation of the MHC complexes.
On the technique in general: An ELISA detects its analyte on a solid surface through an enzyme-linked reagent.
As for B1, the peptide exchange yield fell in the range of 50 to 75%. In turn, B2 returned a peptide exchange yield of 50 to 75%. For the molecule B3, the peptide exchange yield was in the range of 50 to 75%. In the case of B4, the peptide exchange yield was no less than 75%. B5: the peptide exchange yield lay in the range of 20 to 50%. Take B6: the peptide exchange yield was 20 to 50%. As for B7, the figure is 20 to 50%; as for B8, 50 to 75%; as for B9, no less than 75%. In turn, B10 returned a peptide exchange yield of 50 to 75%. Take B11: the peptide exchange yield fell in the range of 20 to 50%. Molecule B12 displayed a peptide exchange yield of no less than 75%. The result for B13 reads 50 to 75%.

In the case of B14, the peptide exchange yield was no less than 75%. The molecule B15 gave a peptide exchange yield of no less than 75%. Regarding B16, the peptide exchange yield fell in the range of 20 to 50%.

B17: the peptide exchange yield is 50 to 75%.

Turning to B18, the peptide exchange yield lay in the range of 50 to 75%. B19: the peptide exchange yield was 50 to 75%. In turn, B20 returned a peptide exchange yield of 50 to 75%. Molecule B21 displayed a peptide exchange yield of 50 to 75%.

Consider B22, for which the peptide exchange yield lay within 50 to 75%. For B23, the peptide exchange yield fell in the range of 20 to 50%. The molecule B24 had a peptide exchange yield of 50 to 75%. The result for B25 reads 50 to 75%; that for B26, no less than 75%; that for B27, 20 to 50%. Molecule B28 registered a peptide exchange yield of 20 to 50%. As to B29, the peptide exchange yield is 20 to 50%. The molecule B30 had a peptide exchange yield of 10 to 20%.

Molecule B31 gave a peptide exchange yield of no less than 75%.

B32 gave a peptide exchange yield of 20 to 50%. In the case of B33, the peptide exchange yield fell in the range of 50 to 75%. As for B34, the figure is no less than 75%. The result for B35 reads 50 to 75%; that for B36, 50 to 75%.

With B37, the peptide exchange yield lay within 20 to 50%. Turning to B38, the peptide exchange yield fell in the range of 20 to 50%. Turning to B39, the peptide exchange yield lay in the range of 50 to 75%. As for B40, the figure is 20 to 50%; as for B41, 50 to 75%; as for B42, 20 to 50%. As for B43, the peptide exchange yield was 50 to 75%. B44 gave a peptide exchange yield of 50 to 75%. B45: the peptide exchange yield lay in the range of 50 to 75%. With B46, the peptide exchange yield lay within 50 to 75%. Molecule B47 came in with a peptide exchange yield of 20 to 50%. As for B48, the figure is 50 to 75%. With B49, the peptide exchange yield lay in the range of 50 to 75%. The molecule B50 had a peptide exchange yield of 50 to 75%. B51 showed a peptide exchange yield of 50 to 75%.

B52 displayed a peptide exchange yield of 50 to 75%. As for B53, the figure is 50 to 75%; as for B54, 50 to 75%; as for B55, 50 to 75%. Consider B56, for which the peptide exchange yield is no less than 75%. Take B57: the peptide exchange yield lay in the range of 50 to 75%. The result for B58 reads 50 to 75%. As for B59, the figure is 50 to 75%; as for B60, no less than 75%.

With B61, the peptide exchange yield is 50 to 75%.
